Assay results: the RNAGym collection of RNA variant scans (doi:10.7554/elife.80360)

B1: HDV Ribozyme (parent)
chain: GGCCGGCAUGGUCCCAGCCUCCUCGCUGGCGCCGGCUGGGCAACAUUCCGAGGGGACCGUCCCCUCGGUAAUGGCGAAUGGGACCCA

Variants of: B1
Test: self-cleavage, relative activity (ratio to wild type); higher = more cleavage; co-transcriptional

Row | Variant | self-cleavage
1 | GGCCGGCAUGGUCCCAGCCUCCUCGCUAGCGCCGGCAGGGCAACAUUCCGAGGGGACCGUCCCCUCGGUAAUGGCGAAUGGGACCCA [G28A U37A] | 0.0773
2 | GGCCGGCAUGGUCCCAGCCUCCUCGCUAGCGCCGGCUGGGCAACAUUCCGAGGGGACCGUCCCCUCGGUAAUGGCGAAUGGAACCCA [G28A G82A] | 0.0604
3 | GGCCGGCAUGGUCCCAGCCUCCUCGCUCGCGCCGGCUGGGCAACAUUCCGAGGGGACCGUCCCCUCGGUAAUGGCGAAUGGGACCCA [G28C] | 0.0814
4 | GGCCGGCAUGGUCCCAGCCUCCUCGCUAGCGCCGGCUGGGCAACAUUCCGAGGGGACCGUCCCCCCGGUAAUGGCGAAUGGGACCCA [G28A U65C] | 0.0415
5 | GGCCGGCAUGGUCCCAGCCUCCUCGCUAGCGCCGGCUGGGCAACAUUCCGAGGGGACCGUCCCCUCGGUAAUAGCGAAUGGGACCCA [G28A G73A] | 0.112
6 | GGCCGGCAUGGUCCCAGCCUCCUCGCUAGCGCCGGCUGGGCAACAUUCCGAGGGGACCGUCCCCUCGGUAAUGGCGAACGGGACCCA [G28A U79C] | 0.0542
7 | GGCCGGCAUGGUCCCAGCCUCCUCGCUAGCGCCGGCUGGGCAACAUUCCGAGGGGACCGUCCCCUCCGUAAUGGCGAAUGGGACCCA [G28A G67C] | 0.0519
8 | GGCCGGCAUGGUCCCAGCCUCCUCGCUAGCGCCGGCUGGGCAACAUUCCGAGGGGACCGUCCCCUCGGUAAGGGCGAAUGGGACCCA [G28A U72G] | 0.107
9 | GGCCGGCAUGGUCCCAGCCUCCUCGCUCGCGCCGGCUGGGCCACAUUCCGAGGGGACCGUCCCCUCGGUAAUGGCGAAUGGGACCCA [G28C A42C] | 0.0437
10 | GGCCGGCAUGGUCCCAGCCUCCUCGCUAGCGCCGGCUGGGCAACAUUCCGACGGGACCGUCCCCUCGGUAAUGGCGAAUGGGACCCA [G28A G52C] | 0.0773
11 | GGCCGGCAUGGUCCCAGCCUCCUCGCUCGCGCCGGCUGGGCACCAUUCCGAGGGGACCGUCCCCUCGGUAAUGGCGAAUGGGACCCA [G28C A43C] | 0.0573
12 | GGCCGGCAUGGUCCCAGCCUCCUCGCUCGCGCCGGCUGGGCAGCAUUCCGAGGGGACCGUCCCCUCGGUAAUGGCGAAUGGGACCCA [G28C A43G] | 0.0573
13 | GGCCGGCAUGGUCCCAGCCUCCUCGCUAGCGCCGGCUGGGCAACAUUCCGAGAGGACCGUCCCCUCGGUAAUGGCGAAUGGGACCCA [G28A G53A] | 0.02
14 | GGCCGGCAUGGUCCCAGCCUCCUCGCUAGCGCCGGCUGGGCAACAUUCCGAGCGGACCGUCCCCUCGGUAAUGGCGAAUGGGACCCA [G28A G53C] | 0.0831
15 | GGCCGGCAUGGUCCCAGCCUCCUCGCUAGCGCCGGCUGGGCAACAUUCCGAGGGGACCGUCCCCUCGGCAAUGGCGAAUGGGACCCA [G28A U69C] | 0.0361
16 | GGCCGGCAUGGUCCCAGCCUCCUCGCUAGCGCCGGCUGGGCAACAUUCCGAGGGGACCGUCCCCUCGGAAAUGGCGAAUGGGACCCA [G28A U69A] | 0.166

Row | Variant | self-cleavage
17 | GGCCGGCAUGGUCCCAGCCUCCUCGCUAGCACCGGCUGGGCAACAUUCCGAGGGGACCGUCCCCUCGGUAAUGGCGAAUGGGACCCA [G28A G31A] | 0.101
18 | GGCCGGCAUGGUCCCAGCCUCCUCGCUCGCGCCGGCUGGGCAACAUUCCGCGGGGACCGUCCCCUCGGUAAUGGCGAAUGGGACCCA [G28C A51C] | 0
19 | GGCCGGCAUGGUCCCAGCCUCCUCGCUAGCGCCGGCUCGGCAACAUUCCGAGGGGACCGUCCCCUCGGUAAUGGCGAAUGGGACCCA [G28A G38C] | 0.0978
20 | GGCCGGCAUGGUCCCAGCCUCCUCGCUAGCGCCGGCUGGGCAACAUCCCGAGGGGACCGUCCCCUCGGUAAUGGCGAAUGGGACCCA [G28A U47C] | 0.0739
21 | GGCCGGCAUGGUCCCAGCCUCCUCGCUAGCGCCGGCUGGGCAACAUUCCGAGGGGACCGUCCCCUCGGUAAUGACGAAUGGGACCCA [G28A G74A] | 0.131
22 | GGCCGGCAUGGUCCCAGCCUCCUCGCUAGCGCCGGCUGGGCAACAUUCCGAGGGUACCGUCCCCUCGGUAAUGGCGAAUGGGACCCA [G28A G55U] | 0.056
23 | GGCCGGCAUGGUCCCAGCCUCCUCGCUAGCGCCGACUGGGCAACAUUCCGAGGGGACCGUCCCCUCGGUAAUGGCGAAUGGGACCCA [G28A G35A] | 0.0608
24 | GGCCGGCAUGGUCCCAGCCUCCUCGCUAGCGCCGCCUGGGCAACAUUCCGAGGGGACCGUCCCCUCGGUAAUGGCGAAUGGGACCCA [G28A G35C] | 0.153
25 | GGCCGGCAUGGUCCCAGCCUCCUCGCUAGCGCCGGCUGGGCAACAUUCCGAGGGGACCGUCCCCUCGGUAAUGGCGAAUGAGACCCA [G28A G81A] | 0.101
26 | GGCCGGCAUGGUCCCAGCCUCCUCGCUAGCGCCGGCUGCGCAACAUUCCGAGGGGACCGUCCCCUCGGUAAUGGCGAAUGGGACCCA [G28A G39C] | 0.106
27 | GGCCGGCAUGGUCCCAGCCUCCUCGCUAGCGCCGGCUGAGCAACAUUCCGAGGGGACCGUCCCCUCGGUAAUGGCGAAUGGGACCCA [G28A G39A] | 0.187
28 | GGCCGGCAUGGUCCCAGCCUCCUCGCUAGCGCCGGCUGGGCAACAUUCCGAGGGGACCGUCCCCUCGCUAAUGGCGAAUGGGACCCA [G28A G68C] | 0.0692
29 | GGCCGGCAUGGUCCCAGCCUCCUCGCUAGCGCCGGCUGGGCAACAUUCCGAGGGGACCGUCCCCUCGAUAAUGGCGAAUGGGACCCA [G28A G68A] | 0.124
30 | GGCCGGCAUGGUCCCAGCCUCCUCGCUAGCGCCAGCUGGGCAACAUUCCGAGGGGACCGUCCCCUCGGUAAUGGCGAAUGGGACCCA [G28A G34A] | 0.175
31 | GGCCGGCAUGGUCCCAGCCUCCUCGCUAGCGCCCGCUGGGCAACAUUCCGAGGGGACCGUCCCCUCGGUAAUGGCGAAUGGGACCCA [G28A G34C] | 0.0536
32 | GGCCGGCAUGGUCCCAGCCUCCUCGCUAGCGCCGGCUGGGCAACAUUCCGAGGCGACCGUCCCCUCGGUAAUGGCGAAUGGGACCCA [G28A G54C] | 0.237
